Source: the supplement of paper PMC10567573

B1: STK38L (parent)
chain: RQLAYSTVGTPDYIAPEVFMQTGY

Variants of: B1
Experiment: protein stability index of a GFP-peptide fusion (GPS, HEK-293T) (PSI 1-6); higher = more stable
Details: c terminus: a fixed tail appended
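Further: lentivirally expressed fusions sorted by FACS into six bins by GFP to DsRed ratio, PSI derived from sequencing read proportions per bin multiplied by bin number.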

Protein stability index, by site and new letter:
Q2: L 1.7; P 2.5; W 1.27; H 1.79; V 1.46; Y 1.88; T 2.53; G 1.84; A 2.45; K 2.54; E 2.3; S 2.4; F 2.55; M 2.03; I 1.61
T10: P 2.48; L 1.96; R 2.86; Y 1.72; N 2.05; G 3.01; W 1.72; M 2.61; D 2.16; A 2.88; F 1.73; V 2.27; S 1.42; H 2.36; I 1.3; K 2.17
T7: K 2.41; P 3.26; C 2.07; Y 2.07; W 1.79; F 1.62; E 3.02; S 2.11; R 2.52; L 2.1; M 1.84; G 2.62; V 2.04; Q 3.12
Y5: P 3.42; N 3.26; F 2.44; L 2.84; S 2.93; E 3.13; H 3.07; A 3.06; C 2.38; G 3.03; R 2.81; V 2.36; T 2.51; D 3.59; I 2.83
P16: H 2.17; I 3.9; R 2.12; L 1.57; D 2.46; K 1.91; C 2.29; A 2.3; F 2.79; T 1.82; Y 1.89; S 2.16; G 1.96; N 2.81; Q 2.35; E 2.96
G9: A 2.63; T 2.7; P 2.6; L 3.14; M 2.59; I 2.17; D 3.15; R 2.65; S 2.37; Y 2.9
D12: K 2.31; G 2.11; M 2.59; Q 2.72; C 1.98; F 1.98; A 2.21; L 2.43; I 1.81; N 2.76; R 3; W 2.08; Y 1.82; H 2.54
M20: T 2.85; R 2.43; H 2.25; C 2.63; N 2.87; G 2.53; Q 4.34; W 1.95; E 2.65; D 3.97; S 3; A 2.78; V 3.1; F 2.06; K 2.76
V8: I 2.58; N 2.41; W 2.5; T 2.83; H 2.92; S 2.6; P 2.51; L 2.37; M 2.87; E 3.29; F 2.18; D 3.27; G 2.76; C 1.49
L3: R 3.09; A 2.55; Y 2.41; M 2.72; S 2.65; P 2.44; H 2.43; V 2.73; D 3.37; F 2.33; T 2.84; Q 2.61
I14: D 2.81; E 2.92; M 2.4; C 2.28; L 2.92; Q 2.66; P 2.39; V 2.54; T 2.69; K 3.11; Y 2.28; A 3.13; G 2.65; W 1.95
S6: T 2.21; F 1.65; N 2.46; I 1.78; R 2.79; K 2.43; P 2.44; Y 1.77; E 3.3; M 1.79
E17: T 1.98; K 2.08
